Results reported in article PMC9376891 (Nature Communications, 2022).

Target: SARS-CoV-2 ORF6 C3 + YP (SARS-CoV-2 | SARS-CoV)
Test: ITC
Settings: both partners purified

Chain of SARS-CoV-2 ORF6 C3 + YP (SARS-CoV-2 | SARS-CoV) (P52948 157-213): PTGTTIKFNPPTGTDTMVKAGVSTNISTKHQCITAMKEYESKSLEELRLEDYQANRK

B1: Rae1(31-368)-Nup98(157-213) heterodimer (complex)
chain 1: DIEVTSSPDDSIGCLSFSPPTLPGNFLIAGSWANDVRCWEVQDSGQTIPKAQQMHTGPVLDVCWSDDGSKVFTASCDKTAKMWDLSSNQAIQIAQHDAPVKTIHWIKAPNYSCVMTGSWDKTLKFWDTRSSNPMMVLQLPERCYCADVIYPMAVVATAERGLIVYQLENQPSEFRRIESPLKHQHRCVAIFKDKQNKPTGFALGSIEGRVAIHYINPPNPAKDNFTFKCHRSNGTNTSAPQDIYAVNGIAFHPVHGTLATVGSDGRFSFWDKDARTKLKTSEQLDQPISACCFNHNGNIFAYASSYDWSKGHEFYNPQKKNYIFLRNAAEELKPRNKK
chain 2: not shown
notes: also called Rae1-Nup98; Rae1-Nup98 complex
- Kd: 200 nM
